Experimental data published in paper PMC10502657 (Advanced Science, 2023).

Legend:
[1] = molecular target: T1, Flag–p53 (UniProt P04637 1-393); assay: pull-down; GST-fusion proteins immobilised on glutathione beads incubated with purified Flag-tagged proteins in 50 mM Tris-HCl pH 7.4, 150 mM NaCl, 0.5% Triton X-100 for 4 h at 4 °C; western blot; conditions: both partners purified
T1 construct: p53; also called Flag-tagged p53; source: HEK293T, transfected, in lysate

[2] = molecular target: T2, Flag–USP7 (UniProt Q93009 1-1102); assay: as above; conditions: both partners purified
T2 construct: ubiquitin-specific protease 7 (USP7); also called Flag-tagged USP7; source: HEK293T, transfected, in lysate
T2 sequence (Q93009 whole entry): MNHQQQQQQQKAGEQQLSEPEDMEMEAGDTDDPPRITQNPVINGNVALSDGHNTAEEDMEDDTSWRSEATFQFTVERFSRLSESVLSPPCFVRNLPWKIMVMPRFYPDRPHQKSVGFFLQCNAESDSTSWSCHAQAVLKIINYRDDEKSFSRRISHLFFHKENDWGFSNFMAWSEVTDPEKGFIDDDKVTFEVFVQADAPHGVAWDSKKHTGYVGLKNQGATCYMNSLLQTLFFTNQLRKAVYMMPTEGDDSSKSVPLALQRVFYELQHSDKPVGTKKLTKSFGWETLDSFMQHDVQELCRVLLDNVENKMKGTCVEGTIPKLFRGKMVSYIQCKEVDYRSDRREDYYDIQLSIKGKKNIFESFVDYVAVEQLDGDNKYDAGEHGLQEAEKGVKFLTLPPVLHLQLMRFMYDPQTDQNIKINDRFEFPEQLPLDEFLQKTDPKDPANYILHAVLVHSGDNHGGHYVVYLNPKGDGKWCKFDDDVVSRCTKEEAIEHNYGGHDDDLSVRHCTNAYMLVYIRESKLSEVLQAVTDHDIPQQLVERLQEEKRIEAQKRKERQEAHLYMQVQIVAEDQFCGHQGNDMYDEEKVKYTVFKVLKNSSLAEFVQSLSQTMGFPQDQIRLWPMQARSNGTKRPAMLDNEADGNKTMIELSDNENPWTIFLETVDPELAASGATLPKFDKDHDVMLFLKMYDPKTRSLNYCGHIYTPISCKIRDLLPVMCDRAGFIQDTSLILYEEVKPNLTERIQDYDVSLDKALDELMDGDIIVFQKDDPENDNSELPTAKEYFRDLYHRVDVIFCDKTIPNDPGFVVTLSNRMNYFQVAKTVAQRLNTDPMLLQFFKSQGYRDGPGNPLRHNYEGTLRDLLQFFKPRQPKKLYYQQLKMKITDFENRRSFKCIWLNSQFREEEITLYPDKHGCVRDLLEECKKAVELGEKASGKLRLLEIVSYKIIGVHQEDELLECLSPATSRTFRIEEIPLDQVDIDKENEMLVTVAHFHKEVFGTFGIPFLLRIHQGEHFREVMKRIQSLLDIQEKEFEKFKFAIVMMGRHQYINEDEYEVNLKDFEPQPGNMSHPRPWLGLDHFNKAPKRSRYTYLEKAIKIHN

T1 sequence (P04637 whole entry, the tested form may be a part): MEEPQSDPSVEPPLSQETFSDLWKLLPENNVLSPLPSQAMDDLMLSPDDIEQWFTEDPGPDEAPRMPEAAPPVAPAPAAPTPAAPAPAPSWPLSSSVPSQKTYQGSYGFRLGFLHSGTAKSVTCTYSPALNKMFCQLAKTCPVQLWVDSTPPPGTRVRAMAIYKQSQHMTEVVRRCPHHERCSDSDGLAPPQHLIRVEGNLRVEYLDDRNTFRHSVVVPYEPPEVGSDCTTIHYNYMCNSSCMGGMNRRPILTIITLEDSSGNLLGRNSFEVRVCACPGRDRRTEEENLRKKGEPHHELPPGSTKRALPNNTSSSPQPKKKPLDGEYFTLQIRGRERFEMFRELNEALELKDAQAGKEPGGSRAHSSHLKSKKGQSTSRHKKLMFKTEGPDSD

binding result [1]: binds | binding result [2]: binds
B1: GST–MLF2 (natural protein, UniProt Q15773 1-248, looked up)
chain: MFRFMRDVEPEDPMFLMDPFAIHRQHMSRMLSGGFGYSPFLSITDGNMPGTRPASRRMQQAGAVSPFGMLGMSGGFMDMFGMMNDMIGNMEHMTAGGNCQTFSSSTVISYSNTGDGAPKVYQETSEMRSAPGGIRETRRTVRDSDSGLEQMSIGHHIRDRAHILQRSRNHRTGDQEERQDYINLDESEAAAFDDEWRRETSRFRQQRPLEFRRLESSGAGGRRAEGPPRLAIQGPEDSPSRQSRRYDW
notes: myeloid leukemia factor 2 (MLF2); also called glutathione-S-transferase (GST) tagged MLF2
